According to article doi:10.1101/2021.08.27.457910:

How the values were obtained:
Sgo1_(1-130) (human) = Sgo1_(1-130) (human) (UniProt Q5FBB7); experiment: ITC
Sgo1_(1-415) (human) [1] = target: Sgo1_(1-415) (human) (UniProt Q5FBB7); experiment: ITC
Sgo1_(1-415) (human) [2] = target: Sgo1_(1-415) (human) (UniProt Q5FBB7); experiment: mass photometry

Survivin (from UniProt O15392 1-142) (natural protein)
Kd (Sgo1_(1-130) (human)): 255 nM

CPC_(ISB10-280) (INCENP_(1-58), Survivin full length and Borealin_(10-280)) (from UniProt Q9NQS7 1-58; O15392 1-142; Q53HL2 10-280) (complex)
Kd (Sgo1_(1-415) (human) [1]): 53 nM
dH (Sgo1_(1-415) (human) [1]): -6.58 kcal/mol
stoichiometry N (Sgo1_(1-415) (human) [1]): 1
Kd (Sgo1_(1-130) (human)): 57 nM

CPC_(ISB10-221) (INCENP_(1-58), Survivin and Borealin_(10-221)) (from UniProt Q9NQS7 1-58; O15392 1-142; Q53HL2 10-221) (complex)
Kd (Sgo1_(1-130) (human)): 163 nM

Sgo1_(1-415) (from UniProt Q5FBB7 1-415) (domain or fragment)
stoichiometry N (Sgo1_(1-415) (human) [2]): 2
